Experimental findings from patent US20260132208A1 (DOMAIN THERAPEUTICS, published 2026) are described below.

First the molecules themselves.
B1: anti-CCR8 mAb 1-45 (antibody, human IgG1, kappa)
heavy: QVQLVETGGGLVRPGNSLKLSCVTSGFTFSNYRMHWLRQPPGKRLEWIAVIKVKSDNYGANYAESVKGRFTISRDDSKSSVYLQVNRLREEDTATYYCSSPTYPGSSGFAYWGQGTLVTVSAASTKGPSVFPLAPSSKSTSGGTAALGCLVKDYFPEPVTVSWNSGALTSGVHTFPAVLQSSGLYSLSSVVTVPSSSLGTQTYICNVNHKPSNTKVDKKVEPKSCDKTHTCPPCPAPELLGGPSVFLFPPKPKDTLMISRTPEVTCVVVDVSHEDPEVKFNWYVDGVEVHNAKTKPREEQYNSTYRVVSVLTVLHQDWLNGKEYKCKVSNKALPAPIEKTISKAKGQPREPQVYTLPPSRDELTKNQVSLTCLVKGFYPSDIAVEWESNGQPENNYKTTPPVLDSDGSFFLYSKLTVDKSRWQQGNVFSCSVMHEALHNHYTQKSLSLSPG
light: DIQMTQTTSSLSASLGDRVTISCRASQDISNYLNWYQQKPDGTVKLLIYYTSRLHSGVPSRFSGSGSGTDYSLTISNLEQEDIATYFCQQGNKFPPTFGGGTKLEINRTVAAPSVFIFPPSDEQLKSGTASVVCLLNNFYPREAKVQWKVDNALQSGNSQESVTEQDSKDSTYSLSSTLTLSKADYEKHKVYACEVTHQGLSSPVTKSFNRGEC
B2: anti-CCR8 mAb 1-48 (antibody, human IgG1, kappa)
heavy: QVQLVETGGGLVRPGNSLKLSCVTSGFTFSNYRMHWLRQPPGKRLEWIAVIKVKSDNYGANYAESVKGRFTISRDDSKSSVYLQVNRLREEDTATYYCSSPTYPGSSGFAYWGQGTLVTVSAASTKGPSVFPLAPSSKSTSGGTAALGCLVKDYFPEPVTVSWNSGALTSGVHTFPAVLQSSGLYSLSSVVTVPSSSLGTQTYICNVNHKPSNTKVDKKVEPKSCDKTHTCPPCPAPELLGGPDVFLFPPKPKDTLMISRTPEVTCVVVDVSHEDPEVKFNWYVDGVEVHNAKTKPREEQYNSTYRVVSVLTVLHQDWLNGKEYKCKVSNKALPLPEEKTISKAKGQPREPQVYTLPPSRDELTKNQVSLTCLVKGFYPSDIAVEWESNGQPENNYKTTPPVLDSDGSFFLYSKLTVDKSRWQQGNVFSCSVMHEALHNHYTQKSLSLSPG
light: B1 light
B3: anti-CCR8 mAb 1-33 (antibody, human IgG1, kappa)
heavy: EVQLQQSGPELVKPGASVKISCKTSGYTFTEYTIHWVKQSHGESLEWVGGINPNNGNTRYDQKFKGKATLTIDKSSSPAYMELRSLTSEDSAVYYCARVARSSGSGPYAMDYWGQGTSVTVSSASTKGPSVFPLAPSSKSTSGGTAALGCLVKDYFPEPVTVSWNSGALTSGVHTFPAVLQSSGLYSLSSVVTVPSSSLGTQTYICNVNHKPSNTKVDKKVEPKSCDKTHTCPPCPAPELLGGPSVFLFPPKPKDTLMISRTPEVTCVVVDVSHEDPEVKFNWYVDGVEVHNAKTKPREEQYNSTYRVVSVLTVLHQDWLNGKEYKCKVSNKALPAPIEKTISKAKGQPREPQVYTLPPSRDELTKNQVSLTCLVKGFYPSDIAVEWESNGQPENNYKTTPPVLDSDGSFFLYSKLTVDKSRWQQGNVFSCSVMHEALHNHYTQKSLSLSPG
light: DVVMTQTPLSLPVSLGDQASISCRCTQSLLHTNGDTYLHWYLQKPGQSPKLLIYKVSNRFSGVPDRFSGSGSGTDFTLKISRVEAEDLGVYFCSQSTHVPYTFGGGTKLEIKRTVAAPSVFIFPPSDEQLKSGTASVVCLLNNFYPREAKVQWKVDNALQSGNSQESVTEQDSKDSTYSLSSTLTLSKADYEKHKVYACEVTHQGLSSPVTKSFNRGEC
B4: anti-CCR8 mAb 1-35 (antibody, human IgG1, kappa)
heavy: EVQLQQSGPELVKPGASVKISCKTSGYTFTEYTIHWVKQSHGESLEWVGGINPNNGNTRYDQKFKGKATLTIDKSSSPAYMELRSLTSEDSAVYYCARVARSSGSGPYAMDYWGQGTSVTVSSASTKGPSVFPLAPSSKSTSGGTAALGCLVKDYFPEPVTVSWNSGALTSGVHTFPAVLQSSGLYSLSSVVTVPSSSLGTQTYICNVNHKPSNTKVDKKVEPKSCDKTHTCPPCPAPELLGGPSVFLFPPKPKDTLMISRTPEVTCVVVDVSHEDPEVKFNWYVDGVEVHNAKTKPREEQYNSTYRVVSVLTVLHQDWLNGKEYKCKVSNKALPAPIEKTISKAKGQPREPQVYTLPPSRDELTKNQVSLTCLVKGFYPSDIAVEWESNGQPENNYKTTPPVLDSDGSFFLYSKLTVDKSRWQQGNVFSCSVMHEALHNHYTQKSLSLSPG
light: B3 light
modifications: hypofucosylated (low fucosylated) Fc glycan

This test concerns the target human CCR8 (human, UniProt P51685 1-355). The test can be described thus: cell-based or functional assay.
B1: the “ADCC % max lysis, HUT78 targets, NK donor 3” value (shortened to “ADCC % max lysis … NK donor 3”) amounted to 16%; the “ADCC % max lysis, HUT78 targets, NK donor 4” value (“ADCC % max lysis … NK donor 4” below) worked out at 18%; the “ADCC EC50, HUT78 targets, NK donor 3” value came to 291 pM; the “ADCC EC50, HUT78 targets, NK donor 4” value is 406 pM.

For the molecule B2, the “ADCC % max lysis … NK donor 3” value is 25%; the “ADCC % max lysis … NK donor 4” value is 30%; the “ADCC EC50, HUT78 targets, NK donor 3” value was 8.22 pM; the “ADCC EC50, HUT78 targets, NK donor 4” value was 48.9 pM.

With B3, the “ADCC % max lysis … NK donor 3” value amounted to 14%; the “ADCC % max lysis … NK donor 4” value amounted to 15%; the “ADCC EC50, HUT78 targets, NK donor 3” value stood at 793 pM; the “ADCC EC50, HUT78 targets, NK donor 4” value is 1520 pM.

Turning to B4, the “ADCC % max lysis … NK donor 3” value turned out to be 29%; the “ADCC % max lysis … NK donor 4” value is 29%; the “ADCC EC50, HUT78 targets, NK donor 3” value came to 195 pM; the “ADCC EC50, HUT78 targets, NK donor 4” value was found to be 282 pM.
